From patent US20070184519A1 (published 2007)

Columns and labels:
HLA-DR DRB1*0405 (human) = target: T1, HLA-DR DRB1*0405 (human); test: competition with 125I probe, purified MHC II
T1 chain 1: not shown
T1 chain 2: not shown

DRB1*0301 = DRB1*0301 (human, UniProt P01903 26-216, limits assumed); test: competition vs 125I probe peptide, purified MHC II
DRB1*0802 = DRB1*0802 (human, UniProt P01903 26-216, limits assumed); test: competition vs 125I probe peptide, purified MHC II
DRB1*0404 = DRB1*0404 (human, UniProt P01903 26-216, limits assumed); test: competition vs 125I probe peptide, purified MHC II
DRB1*0701 = DRB1*0701 (human, UniProt P01903 26-216, limits assumed); test: competition vs 125I probe peptide, purified MHC II
DRB1*0405 = DRB1*0405 (human, UniProt P01903 26-216, limits assumed); test: competition vs 125I probe peptide, purified MHC II
DRB1*0401 = DRB1*0401 (human, UniProt P01903 26-216, limits assumed); test: competition vs 125I probe peptide, purified MHC II
DRB1*0101 = DRB1*0101 (human, UniProt P01903 26-216, limits assumed); test: competition vs 125I probe peptide, purified MHC II
DRB1*1101 [1] = target: DRB1*1101 (human, UniProt P01903 26-216, limits assumed); test: competition vs 125I probe peptide, purified MHC II
DRB5*0101 = DRB5*0101 (human, UniProt P01903 26-216, limits assumed); test: competition vs 125I probe peptide, purified MHC II
DRB1*1302 [2] = target: DRB1*1302 (human, UniProt P01903 26-216, limits assumed); test: competition vs 125I probe peptide, purified MHC II
DRB4*0101 = DRB4*0101 (human, UniProt P01903 26-216, limits assumed); test: competition vs 125I probe peptide, purified MHC II
DRB1*0901 [3] = target: DRB1*0901 (human, UniProt P01903 26-216, limits assumed); test: competition vs 125I probe peptide, purified MHC II
DRB1*0901 [4] = target: DRB1*0901 (human, UniProt P01903 26-216, limits assumed); test: inhibition of 125I-labelled probe peptide binding to purified HLA class II
DRB1*1101 [5] = target: DRB1*1101 (human, UniProt P01903 26-216, limits assumed); test: as above
DRB1*1302 [6] = target: DRB1*1302 (human, UniProt P01903 26-216, limits assumed); test: as above
HLA-DR DRB4*0101 = HLA-DR DRB4*0101 (human); test: competition with 125I probe, purified MHC II
HLA-DR DRB1*0401 = HLA-DR DRB1*0401 (human); test: competition with 125I probe, purified MHC II
HLA-DR DRB5*0101 = HLA-DR DRB5*0101 (human); test: competition with 125I probe, purified MHC II
HLA-DR DRB1*0101 = HLA-DR DRB1*0101 (human); test: competition with 125I probe, purified MHC II
[7] = target: HLA-DR molecule DRB5*0101 (human); test: competition vs 125I probe, purified HLA
[8] = target: HLA-DR molecule DRB1*1302 (human); test: competition vs 125I probe, purified HLA
[9] = target: HLA-DR molecule DRB1*0404 (human); test: competition vs 125I probe, purified HLA
[10] = target: HLA-DR molecule DRB1*1101 (human); test: competition vs 125I probe, purified HLA
[11] = target: HLA-DR molecule DRB4*0101 (human); test: competition vs 125I probe, purified HLA
[12] = target: HLA-DR molecule DRB1*0802 (human); test: competition vs 125I probe, purified HLA
[13] = target: HLA-DR molecule DRB1*0301 (human); test: competition vs 125I probe, purified HLA
[14] = target: HLA-DR molecule DRB1*0101 (human); test: competition vs 125I probe, purified HLA
[15] = target: HLA-DR molecule DRB1*0901 (human); test: competition vs 125I probe, purified HLA
[16] = target: HLA-DR molecule DRB1*0401 (human); test: competition vs 125I probe, purified HLA
[17] = target: HLA-DR molecule DRB1*0405 (human); test: competition vs 125I probe, purified HLA
[18] = target: HLA-DR molecule DRB1*0701 (human); test: competition vs 125I probe, purified HLA
HLA-DR DRB3*0101 = HLA-DR DRB3*0101 (human); test: competition with 125I probe, purified MHC II
HLA-DR DRB1*0802 = HLA-DR DRB1*0802 (human); test: competition with 125I probe, purified MHC II
[19] = target: HLA-DR molecule DRB1*1101 (DR5w11) (human); test: inhibition of radiolabelled probe peptide binding to purified MHC class II
[20] = target: HLA-DR molecule DRB5*0101 (DR2w2a) (human); test: as above
[21] = target: HLA-DR molecule DRB1*1302 (DR6w19) (human); test: as above
[22] = target: HLA-DR molecule DRB1*0901 (DR9) (human); test: as above
[23] = target: HLA-DR molecule DRB4*0101 (DRw53) (human); test: as above

PLGFFPDHQLDPAFGANSNNPDWDFNP (modifications not checked) [HBV Pre S1 21-47]
IC50 (HLA-DR DRB1*0405 (human)): 31 nM

DTFRKLDRVYSNFLR
IC50 (DRB1*0301): 2810 nM | IC50 (DRB1*0802): 87 nM

DTFRKLFRVYSNDLR [DTFRKLFRVYSNDLR, listing 1 of 2 here]
IC50 (DRB1*0404): 812 nM | IC50 (DRB1*0701): 817 nM | IC50 (DRB1*0405): 487 nM

DTFRKLFRVYSNFGR [DTFRKLFRVYSNFGR, listing 1 of 2 here]
IC50 (DRB1*0401): 50 nM

DTFRKNFRVYSNFLR
IC50 (DRB1*0404): 922 nM | IC50 (DRB1*0401): 91 nM | IC50 (DRB1*0101): 62 nM | IC50 (DRB1*1101 [1]): 5 nM

DTFRKQFRVYSNFLR
IC50 (DRB1*0404): 270 nM | IC50 (DRB1*0701): 3000 nM | IC50 (DRB1*0802): 81 nM | IC50 (DRB5*0101): 4.9 nM

DTGRKLFRVYSNFLR
IC50 (DRB1*0404): 175 nM | IC50 (DRB1*0401): 46 nM | IC50 (DRB1*1302 [2]): 7.5 nM | IC50 (DRB1*0701): 312 nM | IC50 (DRB1*0802): 53 nM

DTKRKLFRVYSNFLR
IC50 (DRB4*0101): 738 nM | IC50 (DRB1*0301): 6490 nM | IC50 (DRB1*1302 [2]): 4.9 nM | IC50 (DRB1*0101): 13 nM

DTPRKLFRVYSNFLR
IC50 (DRB4*0101): 418 nM | IC50 (DRB1*0401): 40 nM | IC50 (DRB1*0101): 13 nM | IC50 (DRB1*0701): 87 nM | IC50 (DRB1*0901 [3]): 28 nM | IC50 (DRB1*0405): 6.9 nM

DTFRKLFRVYSNDLR [DTFRKLFRVYSNDLR, listing 2 of 2 here]
IC50 (DRB1*0901 [4]): 1640 nM | IC50 (DRB1*1101 [5]): 3.6 nM | IC50 (DRB1*1302 [6]): 66 nM

DTFRKLFRVYSNFGR [DTFRKLFRVYSNFGR, listing 2 of 2 here]
IC50 (DRB1*1101 [5]): 2.8 nM

YLDPLIRGLLARPAKLQV [NP7 (TPO Y535-551)]
IC50 (HLA-DR DRB4*0101): 341 nM | IC50 (HLA-DR DRB1*0401): 687 nM | IC50 (HLA-DR DRB5*0101): 476 nM | IC50 (HLA-DR DRB1*0101): 1.6 nM

GLRSLGTLLRALGAQ [EPO 101 analog GLRSLGTLLRALGAQ]
IC50 [7]: 13 nM | IC50 [8]: 739 nM | IC50 [9]: 13 nM | IC50 [10]: 1.4 nM | IC50 [11]: 473 nM

GLRSLTTLARALGAQ [EPO 101 analog GLRSLTTLARALGAQ]
IC50 [8]: 610 nM | IC50 [12]: 7.1 nM | IC50 [9]: 13 nM | IC50 [10]: 0.93 nM | IC50 [13]: 234 nM

GLRSLTTLLDALGAQ [EPO 101 analog GLRSLTTLLDALGAQ]
IC50 [12]: 240 nM | IC50 [9]: 9.3 nM

GLRSLTTLLGALGAQ [EPO 101 analog GLRSLTTLLGALGAQ]
IC50 [14]: 1.3 nM

GLRSLTTLNRALGAQ [EPO 101 analog GLRSLTTLNRALGAQ]
IC50 [7]: 0.89 nM | IC50 [15]: 337 nM | IC50 [16]: 28 nM | IC50 [10]: 0.97 nM | IC50 [11]: 167 nM

GLRSLTTLPRALGAQ [EPO 101 analog GLRSLTTLPRALGAQ]
IC50 [7]: 2.8 nM | IC50 [12]: 7.3 nM | IC50 [9]: 13 nM | IC50 [10]: 0.62 nM | IC50 [17]: 524 nM | IC50 [11]: 112 nM

GLRSLTTLSRALGAQ [EPO 101 analog GLRSLTTLSRALGAQ]
IC50 [15]: 2230 nM | IC50 [8]: 440 nM | IC50 [9]: 13 nM | IC50 [10]: 1.4 nM | IC50 [17]: 719 nM

GLRSLTTLTRALGAQ [EPO 101 analog GLRSLTTLTRALGAQ]
IC50 [7]: 13 nM | IC50 [16]: 394 nM | IC50 [10]: 3 nM

GLRSLTTRLRALGAQ [EPO 101 analog GLRSLTTRLRALGAQ]
IC50 [16]: 211 nM | IC50 [18]: 4370 nM | IC50 [14]: 2.4 nM

DTPYLDITYHFVMQRLPL [Torp. Ach Rec. 195-212]
IC50 (HLA-DR DRB4*0101): 261 nM | IC50 (HLA-DR DRB1*0401): 160 nM | IC50 (HLA-DR DRB3*0101): 800 nM | IC50 (HLA-DR DRB1*0802): 555 nM | IC50 (HLA-DR DRB1*0101): 385 nM

GLRSLTTRLRALGAQ [EPO 101 analog peptide GLRSLTTRLRALGAQ (SEQ ID NO: 192)]
IC50 [19]: 0.79 nM | IC50 [20]: 13 nM

GLRSLTTLLDALGAQ [EPO 101 analog peptide GLRSLTTLLDALGAQ (SEQ ID NO: 193)]
IC50 [21]: 953 nM | IC50 [22]: 277 nM

GLRSLTTLLGALGAQ [EPO 101 analog peptide GLRSLTTLLGALGAQ (SEQ ID NO: 194)]
IC50 [21]: 858 nM | IC50 [23]: 13 nM | IC50 [19]: 2.6 nM | IC50 [20]: 294 nM
